According to publication PMC5374546:

Experiments:
[1] = target: Fcε3-4 Fcε3-4 (Homo sapiens) (UniProt P01854); assay: sedimentation equilibrium; details: cited from earlier work
[2] = target: IgE-Fc (Val224-Lys547, with glycosylation-site double mutation N265Q and N371Q) (human); assay: ITC; 260 uM derCD23 in the syringe titrated into 12.5 uM IgE-Fc dimer in the cell; 25 mM Tris-HCl pH 7.4, 125 mM NaCl, 4 mM CaCl2; 25 °C; iTC200; two-site (2:1) binding model

Sequence of UniProt P01854 (P01854 209-426): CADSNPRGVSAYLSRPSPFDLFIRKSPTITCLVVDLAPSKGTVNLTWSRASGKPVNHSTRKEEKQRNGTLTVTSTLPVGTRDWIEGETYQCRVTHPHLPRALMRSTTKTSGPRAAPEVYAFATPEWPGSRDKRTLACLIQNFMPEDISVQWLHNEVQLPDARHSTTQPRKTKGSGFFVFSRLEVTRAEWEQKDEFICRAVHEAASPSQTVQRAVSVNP

Row | KD1 (site 1 of the two-site model) [2] | KD2 (site 2 of the two-site model) [2] | dH1 (site 1 of the two-site model) [2] | dH2 (site 2 of the two-site model) [2] | stoichiometry N (derCD23 per IgE-Fc dimer) [2] | Molecule | Kd [1]
1 | – | – | – | – | – | derCD23 derCD23 (from UniProt P06734) | 10 µM
2 | 1.2 µM | 14.4 µM | -7.2 kcal/mol | -3.7 kcal/mol | 2 | derCD23 (soluble monomeric lectin-like head domain of human CD23, Ser156-Glu298) (domain or fragment) SGFVCNTCPEKWINFQRKCYYFGKGTKQWVHARYACDDMEGQLVSIHSPEEQDFLTKHASHTGSWIGLRNLDLKGEFIWVDGSHVDYSNWAPGEPTSRSQGEDCVMMRGSGRWNDAFCDRKLGAWVCDRLATCTPPASEGSAE | –
